These are literature values, as cited in patent publication US10507248B2, “Hydrophobic core carrier compositions for delivery of therapeutic agents, methods of making and using the same” (PharmaIn Corporation, priority 2005, dated 2019).

The conditions of the data set: in vivo.

B1: native EGF: native Epidermal Growth Factor with short biological half-life (protein, UniProt P01133 23-1207, looked up)
Pro-epidermal growth factor: PQHWSCPEGTLAGNGNSTCVGPAPFLIFSHGNSIFRIDTEGTNYEQLVVDAGVSVIMDFHYNEKRIYWVDLERQLLQRVFLNGSRQERVCNIEKNVSGMAINWINEEVIWSNQQEGIITVTDMKGNNSHILLSALKYPANVAVDPVERFIFWSSEVAGSLYRADLDGVGVKALLETSEKITAVSLDVLDKRLFWIQYNREGSNSLICSCDYDGGSVHISKHPTQHNLFAMSLFGDRIFYSTWKMKTIWIANKHTGKDMVRINLHSSFVPLGELKVVHPLAQPKAEDDTWEPEQKLCKLRKGNCSSTVCGQDLQSHLCMCAEGYALSRDRKYCEDVNECAFWNHGCTLGCKNTPGSYYCTCPVGFVLLPDGKRCHQLVSCPRNVSECSHDCVLTSEGPLCFCPEGSVLERDGKTCSGCSSPDNGGCSQLCVPLSPVSWECDCFPGYDLQLDEKSCAASGPQPFLLFANSQDIRHMHFDGTDYGTLLSQQMGMVYALDHDPVENKIYFAHTALKWIERANMDGSQRERLIEEGVDVPEGLAVDWIGRRFYWTDRGKSLIGRSDLNGKRSKIITKENISQPRGIAVHPMAKRLFWTDTGINPRIESSSLQGLGRLVIASSDLIWPSGITIDFLTDKLYWCDAKQSVIEMANLDGSKRRRLTQNDVGHPFAVAVFEDYVWFSDWAMPSVMRVNKRTGKDRVRLQGSMLKPSSLVVVHPLAKPGADPCLYQNGGCEHICKKRLGTAWCSCREGFMKASDGKTCLALDGHQLLAGGEVDLKNQVTPLDILSKTRVSEDNITESQHMLVAEIMVSDQDDCAPVGCSMYARCISEGEDATCQCLKGFAGDGKLCSDIDECEMGVPVCPPASSKCINTEGGYVCRCSEGYQGDGIHCLDIDECQLGEHSCGENASCTNTEGGYTCMCAGRLSEPGLICPDSTPPPHLREDDHHYSVRNSDSECPLSHDGYCLHDGVCMYIEALDKYACNCVVGYIGERCQYRDLKWWELRHAGHGQQQKVIVVAVCVVVLVMLLLLSLWGAHYYRTQKLLSKNPKNPYEESSRDVRSRRPADTEDGMSSCPQPWFVVIKEHQDLKNGGQPVAGEDGQAADGSMQPTSWRQEPQLCGMGTEQGCWIPVSSDKGSCPQVMERSFHMPSYGTQTLEGGVEKPHSLLSANPLWQQRALDPPHQMELTQ
modifications: Pro-epidermal growth factor
Turning to B1, the biological half-life entry was “few minutes”.
